In patent US20040077535A1 (Takeda / Millennium, published 2004):

B1: human type ZAQ ligand mature peptide (type G, 86 amino acid residues) (ligand)
peptide: AVITGACERDVQCGAGTCCAISLWLRGLRMCTPLGREGEECHPGSHKVPFFRKRKHHTCPCLPNLLCSRFPDGRYRCSMDLKNINF
notes: also called human type ZAQ ligand peptide; ZAQL-1
B2: snake venom Mamba Intestinal Toxin 1 (MIT1) (ligand)
peptide: AVITGACERDLQCGKGTCCAVSLWIKSVRVCTPVGTSGEDCHPASHKIPFSGQRMHHTCPCAPNLACVQTSPKKFKCLSK
notes: also called snake venom MIT1; non-labeled MIT1

Assays:
[1] = target: T1, G protein-coupled receptor protein ZAQ (human, UniProt Q8TCW9 1-393); experiment: cell-based or functional assay
T1 sequence (Q8TCW9 whole entry): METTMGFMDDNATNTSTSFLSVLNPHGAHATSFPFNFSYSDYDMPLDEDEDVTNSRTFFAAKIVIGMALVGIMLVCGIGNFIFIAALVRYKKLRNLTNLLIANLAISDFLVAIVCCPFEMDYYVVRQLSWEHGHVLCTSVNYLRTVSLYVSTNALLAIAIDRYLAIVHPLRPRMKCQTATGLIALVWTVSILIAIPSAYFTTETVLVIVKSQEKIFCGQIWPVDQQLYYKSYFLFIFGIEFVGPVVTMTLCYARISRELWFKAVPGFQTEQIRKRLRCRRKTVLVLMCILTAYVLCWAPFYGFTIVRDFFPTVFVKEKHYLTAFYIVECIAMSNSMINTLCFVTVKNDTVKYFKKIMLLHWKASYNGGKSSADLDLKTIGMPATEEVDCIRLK

[2] = target: T2, human type I5E receptor protein (human, UniProt Q8NFJ6 1-384); experiment: displacement of 125I-MIT1 from I5E-4 CHO cell membrane fraction, glass fiber filter binding assay
T2 construct: Stably expressed in CHO/dhfr- cells (clone I5E-4); Whole cells in the FLIPR assays; also called ISE receptor; I5E-4 cell
T2 sequence (Q8NFJ6 whole entry): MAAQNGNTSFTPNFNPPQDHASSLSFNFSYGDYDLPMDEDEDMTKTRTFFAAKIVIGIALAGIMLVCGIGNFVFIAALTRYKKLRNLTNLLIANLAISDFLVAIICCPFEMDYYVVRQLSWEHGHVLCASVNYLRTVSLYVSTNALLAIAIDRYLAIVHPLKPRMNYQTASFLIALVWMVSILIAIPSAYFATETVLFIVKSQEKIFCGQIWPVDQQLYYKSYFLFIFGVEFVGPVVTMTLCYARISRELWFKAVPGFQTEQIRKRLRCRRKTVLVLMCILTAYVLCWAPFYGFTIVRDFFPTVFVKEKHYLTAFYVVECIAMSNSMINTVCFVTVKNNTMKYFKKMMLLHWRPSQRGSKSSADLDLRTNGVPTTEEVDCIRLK

[3] = target: T1, G protein-coupled receptor protein ZAQ; experiment: displacement of 125I-MIT1 from ZAQC-B1 CHO cell membrane fraction, glass fiber filter binding assay

Row | Binder | increase of the intracellular calcium ion concentration (FLIPR), EC50 [1] | IC50 [2] | IC50 [3]
1 | B1 | 96 pM | 0.093 nM | 0.035 nM
2 | B2 |  | 0.032 nM | 0.038 nM
